Data from the nanobody polyreactivity screen of Harvey et al. (2022).

Assay: yeast display, Sf9 membrane polyspecificity reagent, FACS + sequencing; frameworks hold sequencing errors
Outline: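 Genes from sorted yeast were amplified by colony PCR, read by MiSeq 2 × 250 sequencing and filtered on CDR length. These cells carried a synthetic nanobody library in Saccharomyces cerevisiae BJ5465 and were sorted by FACS into low and high (top ~1%) gates on anti-HA and streptavidin fluorescence. Polyreactivity is labelled according to the gate of origin.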

Sequence	polyreactivity (PSR sort gate)
QVQLVESGGGLVQAGGSLRLSCAASGIIFAYNAMGWYRQAPGKERELVAAISVIGGTTYYADSVKGRFTISRDNAKNTVYLQMHSLKPEDTAVYYCAVDSVQYGGGYERLHELYYWGQGTQVTVSS	low polyreactivity
QVQLVESGGGLVQAGGSLRLSCAASGIIFAYNAMGWYRQAPGNERELVAAITSGTSTHYADSVKGRFTISRDNAKNTVYLQMNSLKPEDTAVYYCAKVYSYFNPRTYKPSFAGSDYWGQGTQVTVSS	low polyreactivity
QVQLVESGGGLVQAGGSLRLSCAASGIIFAYYAMGWYRQAPGKETELVAAINRSGGTTYYADSVKGRFTISRDNAKNTVYLQMNSLKPEDTAVYYCNALTTWRYRYDYWGQGTQVTVSS	high polyreactivity
QVQLVESGGGLVQAGGSLRLSCAASGIIFAYYTMGWYRQAPGKLRELVAAISWNGGRTYYADSVKGRFTISRDNAKNTVYLQINSLKPEDTAVYYCAARDASSFLRSYYWGQGTQVTVSS	high polyreactivity
QVQLVESGGGLVQAGGSLRLSCAASGIIFDEYAMGWYRQAPGKERELVATISSGGDTNYADSVKGRFTISRDNAKHTFYLQMNSLKPEDTALYYCAATVYDGYSPYDYDYWGQGTQVTVSS	low polyreactivity
QVQLVESGGGLVQAGGSLRLSCAASGIIFDGYAMGWYRQAPGKEREFVAAITSGGGSTSYADSVKGRFTISRDNAKNTVYLQMNSLKPEDTAVYSCAARSNRFYVRQRYGYWGQGTQVTVSS	high polyreactivity
QVQLVESGGGLVQAGGSLRLSCAASGIIFDGYVMGWYRQAPGNERELVAAISRSGGRTFYADSVKGRFTISRDNAKNTVYLQMNSLKPEATAVYYCAARRVRTRGYNYWGQGTQVTVSS	high polyreactivity
QVQLVESGGGLVQAGGSLRLSCAASGIIFDLNAMGWYRQAPGKERELVAAISSGGGTYYADSVKGRFTISRDNAKNTVYLQMNSLKPEDTAVYYCNRVTRWTYNYWGQGTLVTVSS	high polyreactivity
QVQLVESGGGLVQAGGSLRLSCAASGIIFDPYAMGWYRQAPGKERELVADIDNASSTYYADSVKGRFTISRDNAKNTVYLQMNSLKPEDTAVYYCTADLWYGGEYWGQGTQVTVSS	low polyreactivity
QVQLVESGGGLVQAGGSLRLSCAASGIIFDSYAMGWYRQAPGKERELVAAISTSGGSTYYADSVKGRFTISRDNAKNTVYLQMNSLKPEDTEVYYCAARYAVSRYRFGFNYWGQGTQVTVSS	high polyreactivity
QVQLVESGGGLVQAGGSLRLSCAASGIIFDSYTMGWYRQAPGKERELVAAISVSGGSTYYADSVKGRFTISRDNAKNTVYLQMNSLKPEDTAVYYCATVPSLPDYDSWGQGTQVTVSS	low polyreactivity
QVQLVESGGGLVQAGGSLRLSCAASGIIFDWYAMGWYRQAPGKERELVAAISYSGGTTYYADSVKGRFTISRDNAKNTVYFQMNSLTPEDTAVYYCAARYEGAAANYVEYGYWGLGTQVTVSS	low polyreactivity
QVQLVESGGGLVQAGGSLRLSCAASGIIFDYNAMGWYRQAPGKERELVAAITSTDNTNYADSVKGRFTISRDNAKNTVYLQMNSLKPEDTAVYYCNSVYWLSVVYAMDYWGQGTQVTVSS	low polyreactivity
QVQLVESGGGLVQAGGSLRLSCAASGIIFDYNAMGWYRQAPGKERELVAAITSTDNTNYADSVKGRFTISRDNAKNTVYLQMNSLKPEDTAVYYCNTDYLLCVVYAMDYCGQGTQVTVSS	low polyreactivity
QVQLVESGGGLVQAGGSLRLSCAASGIIFDYYDMGWYRQAPGKERELVAAISDDGGSTYYADSVKGRFTISRDNAKNTVYLQMNSLKPEDTAVYYCAADSYYAYPYGYGYWGQGTQVTVSS	high polyreactivity
QVQLVESGGGLVQAGGSLRLSCAASGIIFEGNVMGWYRQAPGKERELVAAITSDTSTNYADSVKGRFTISRDNAKNSVYLQMNSLKPEDTAVYYCDALRRYPRPNIYGYWGQGTQVTVSS	low polyreactivity
QVQLVESGGGLVQAGGSLRLSCAASGIIFEYYAMGWYRQAPGKERELVAAISKRGGSTYYADSVKGRFTISRDNAKNTVYLQMNSLKPEDTAVYYCNARRWWVIRDYWGQGTQVTVSS	high polyreactivity
QVQLVESGGGLVQAGGSLRLSCAASGIIFEYYDRGWYRQAPGKERELVAAIDSGGSTYYADSVKGRFTISRDNAKNTVYLQMNSLKPEDTAVYYCAAETVRYDWGESPAALFDYWGQGTQVTVSS	low polyreactivity
QVQLVESGGGLVQAGGSLRLSCAASGIIFEYYTMGWYRQAPGNERELVASITYDGDSTYYADSVKGRFTISRDHAKNTVYLQINSLKPEDTAVYFCAADYYYVYSSFGHYYWGQGTQVTVSS	low polyreactivity
QVQLVESGGGLVQAGGSLRLSCAASGIIFFDYAMGWYRQAPGKERELVAAITSSGGSTYYADSVKGRFTISRDNAKNTVYLQMNSLKPEDTAVYYCAAATRGSGRRNDYWGQGTQVTVSS	high polyreactivity
QVQLVESGGGLVQAGGSLRLSCAASGIIFFIYAMGWYRQAPGKERELVARISWRGGSTSYADSVKGRFTISRDNAKNTVYLQMNSLKPEDTAVYYCAAGVYSFRYDSWGQGTQVTVSS	low polyreactivity
QVQLVESGGGLVQAGGSLRLSCAASGIIFFKYAKGWYRQAPGKEKELVAAITSGGSTYYADSVKGRFTISRDNAKHTVYLQMNSLKPEDTAFYYCAAAGGRFIRYGYWGQGTQVTVSS	high polyreactivity

Sequence	polyreactivity (PSR sort gate)
QVQLVESGGGLVQAGGSLRLSCAASGIIFFKYAMGWYRQAPGKERQLVAAITSGGSTYYADSVKGRFTISRDNEKNTVYLQMNSLKPVDTAVYYCAAAGGRFIRYGYWGQGTQVTVSS	high polyreactivity
QVQLVESGGGLVQAGGSLRLSCAASGIIFFRNAMGWYRQAPGKERELVAAISSGGSTYYADSVKGRFTISRDNAKNTVYLQMNSLKPEDTAVYYCNKVVPLYYASYDYWGQVTQVTVSS	low polyreactivity
QVQLVESGGGLVQAGGSLRLSCAASGIIFFRNPMGWYRQAPGKERELVAAISSGGSTYYADSVKGRFTISRDNAKNTVYLQMNSLKPEDTAVYYCNQVGPLYYASYDYWGQGTQGTVSS	low polyreactivity
QVQLVESGGGLVQAGGSLRLSCAASGIIFGDYAMGWYRQAPGKERELVAGISITGDSTYYADSVKGRFTISRDNAKNTVYLQMNSLKPEDTAVSYCAAGWALIFDYWGQGTQVTVSS	low polyreactivity
QVQLVESGGGLVQAGGSLRLSCAASGIIFGEYPMGWYRQAPGKERELVAAISWSGGSTYYADSVKGRFTISRDNAKNTVYLQMNSLKPEDTAVYYCNPLPDIVIGGIIGYDYWGQGTQVTVSS	high polyreactivity
QVQLVESGGGLVQAGGSLRLSCAASGIIFGFNAMGWYRQAPGKERELVAAINGDDSTYYADSVKGRFTISRDTAKNTVYFQMNSLKPEDTAVYYSAARYYRYLTFTGELLVYYWGQGTQVTVSS	low polyreactivity
QVQLVESGGGLVQAGGSLRLSCAASGIIFGFNAMGWYRQAPGKETELVAAINGDDSTYYADSVKGRFTISRDNAKNTVYLQMNSLKPEDTAVYYCAARYYRYLTFTGELLVYYWGQGTQVTVSS	low polyreactivity
QVQLVESGGGLVQAGGSLRLSCAASGIIFGFYAMGWYRQAPGKERELVAAITSGGRTDYADSVKGRFTISRDNAKNTVYLQMNSLKPEDTAVYYCAAEFTYYGARWGYLGDLDYWGQGTQVTVSS	high polyreactivity
QVQLVESGGGLVQAGGSLRLSCAASGIIFGGNVMGWYRQAPGKERELVAAISGGGGRTHYADSVKGRFTISRDNAKNTVYLQMNSLKPEDTAVYYCAVVTRYRYDYWGQGTQVTVSS	high polyreactivity
QVQLVESGGGLVQAGGSLRLSCAASGIIFGIYDMGWYRQAPGKESELVAAIRRSGGSTYYADSVKGRFTISRDNAKNTVYLQMNSLKPEDTAVYYCAATRHSRVRGGDYWGQGTQVTVSS	low polyreactivity
QVQLVESGGGLVQAGGSLRLSCAASGIIFGKYDMGWYRQAPGKERELVAAITSGTSTNYADSVKGRFTISRDNAKNTVYLQMNSLKPEDTAVYYCAADVYLYYPYFGHRRYNYWGQGTQVTVSS	high polyreactivity
QVQLVESGGGLVQAGGSLRLSCAASGIIFGLNDMGWYRQAPGKERELVADITYSGGSTYYADSVKGRFTISRDNAKNTVYLQMNSLKPEDTAVYYCAADEVSFWGYIYDYWGQGTQVTVSS	high polyreactivity
QVQLVESGGGLVQAGGSLRLSCAASGIIFGRNAMGWYRPAPGKERELVAVITGGGGRTYYADSVKGRFTISRDNAKKTVYLQMNSLKPEDTAVYYCNKDYRRNLAYFKEPGVPVDYWGQGTQVTVSS	low polyreactivity
QVQLVESGGGLVQAGGSLRLSCAASGIIFGRYAMGWYRQAPGKERELVAAINASGGSTYYADSVKGRFTISRDNAKNTVYLQMNSLKPEDTAVYYCATRSTRSRTSGYYYWGQGTQVTVSS	high polyreactivity
QVQLVESGGGLVQAGGSLRLSCAASGIIFGRYAMGWYRQAPGKERELVAAISTSGGSTYYADSVKGRFTISRDNAKNTVYLQMNSLKPEDTAVYYCAARHREAQRRYDYWGQGTQVTVSS	high polyreactivity
QVQLVESGGGLVQAGGSLRLSCAASGIIFGRYTMGWSRQAPGKERELVAAITSSGITYYADSVKGRFTISRDNAKNTVYLQMNSLKPEDTAVYYCIADYSSPGYYWPYDYWGQGTQVTVSS	low polyreactivity
QVQLVESGGGLVQAGGSLRLSCAASGIIFGRYTMGWYRQAPGKERELVAAITSSGITYYADSVKGRFTISRDNAKNTDYLQMNSLKPEDTAVYYCNADYSIPGYYWPYDYWGQGTQVTVSS	low polyreactivity
QVQLVESGGGLVQAGGSLRLSCAASGIIFGTNAMGWYRQAPGKERELVAYITSGGSTYADSVKGRFTISRDKAKNTVYLQMNSLKPEDTAVSYCNADTGKWGGNGWYEFDYWGQGTQVTVSS	low polyreactivity
QVQLVESGGGLVQAGGSLRLSCAASGIIFHPYAMGWYRQAPGKERELVAVITWPGDSTYYADSVKGRFTISRDNAKNTVYLQMNSLKPEDTAVYYCNAAVEGSLNGYEYWGQGTQVTVSS	low polyreactivity
QVQLVESGGGLVQAGGSLRLSCAASGIIFHYYAMGWYRQAPGKERDLVAAISGSGGSTYYADSVKGRFTISRDNAKNTVFLQMNSLKPEDTAVYYCAAILWGGGGYWGQGTQVTVSS	high polyreactivity
QVQLVESGGGLVQAGGSLRLSCAASGIIFIAYAMGWYRQAPGKERELVADISIGGSTNYADSVKGRFTISRDNAKNTVYLQMNSQKPEDTAVYYCNAGGGFYGSTVEHDYWGQGTQVTVSS	low polyreactivity
